To fix the notation:
B1: CDW128B (IL8RB) C-terminal peptide AA29.2L, biotinylated (peptide)
peptide: Biotin-KDSRPSFVGSSSGHTSTTL
notes: also called CDW128E (IL8RB)
B2: Clasp-2 C-terminal peptide AA2L, biotinylated (peptide)
peptide: Biotin-ISGTPTSTMVHGMTSSSSVV

Experimental findings from patent US20050037969A1 (ARBOR VITA, published 2005) are described below.

Ends that are not written are not given here. * marks the point of attachment. Biotin = O=C1N[C@H]2[C@H](CS[C@H]2CCCCC(=O)*)N1

T12 sequence (Q2T9M1 other isoform, or with tags, fused parts or gaps limits assumed): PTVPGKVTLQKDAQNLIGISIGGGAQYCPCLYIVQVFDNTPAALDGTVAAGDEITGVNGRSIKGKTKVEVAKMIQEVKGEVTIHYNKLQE
T15 sequence (Q13009 other isoform, or with tags, fused parts or gaps): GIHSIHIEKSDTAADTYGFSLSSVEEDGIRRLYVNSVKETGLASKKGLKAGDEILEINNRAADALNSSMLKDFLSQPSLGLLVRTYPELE

The target in the first assay is T1, SP short PDZ-GST fusion protein (Homo sapiens (Human), UniProt O43464 350-435).
T1 construct: The label SP short is not explained in the excerpts
T1 sequence: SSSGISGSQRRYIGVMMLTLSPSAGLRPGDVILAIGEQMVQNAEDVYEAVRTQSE
The assay can be described thus: A/G assays.
Regarding B1, the binding result is recorded as “no binding”.

As for B2, the binding result was “no binding”.

The target of the next assay is T2, GST-mouse syntenin fusion protein (Mus musculus, UniProt O08992 108-286).
T2 construct: also called Mus musculus Syntenin; not shown: glutathione S-transferase encoded by vector pGEX-3X (Pharmacia)
T2 chain: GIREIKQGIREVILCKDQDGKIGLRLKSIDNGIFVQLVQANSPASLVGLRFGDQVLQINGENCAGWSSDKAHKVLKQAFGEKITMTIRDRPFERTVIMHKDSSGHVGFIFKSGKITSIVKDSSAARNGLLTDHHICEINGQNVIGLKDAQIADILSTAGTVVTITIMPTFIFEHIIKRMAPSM
The assay can be described thus: A/G assays.
B1: the binding result is given as “no binding”.

On to B2, for which the binding result was “no binding”.

A further assay deals with T3, GST-PTN-4 PDZ domain fusion protein (Homo sapiens (Human), UniProt P29074 517-605).
T3 construct: also called protein-tyrosine phosphatase meg1; not shown: glutathione S-transferase encoded by vector pGEX-3X (Pharmacia)
T3 sequence: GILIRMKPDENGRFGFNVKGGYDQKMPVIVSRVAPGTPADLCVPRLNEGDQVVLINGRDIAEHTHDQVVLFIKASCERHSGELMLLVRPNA
The assay can be described thus: A/G assays.
As for B1, the binding result was “no binding”.

For B2, the binding result is “no binding”.

The next assay addresses T4, K559 PDZ-GST fusion protein (Homo sapiens (Human), UniProt Q9Y6V0 4489-4593).
T4 construct: Order of GST and PDZ part and limits not seen in the excerpts
T4 sequence: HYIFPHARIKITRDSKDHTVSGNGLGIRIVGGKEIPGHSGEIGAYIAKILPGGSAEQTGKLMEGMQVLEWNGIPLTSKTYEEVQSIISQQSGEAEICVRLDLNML
The assay can be described thus: A/G assays.
On to B1, for which the binding result was “no binding”.

On to B2, for which the binding result is recorded as “no binding”.

The next assay has as its target T5, GST-TAX-IP2 PDZ domain fusion protein (human, UniProt O14908 129-216).
T5 construct: also called TAX-1P2; TAX2; not shown: glutathione S-transferase encoded by vector pGEX-3X (Pharmacia)
T5 chain: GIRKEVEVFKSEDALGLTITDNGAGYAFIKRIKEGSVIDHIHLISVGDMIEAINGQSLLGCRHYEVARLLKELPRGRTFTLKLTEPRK
The assay is described as follows: A/G assays.
Turning to B1, the binding result is recorded as “no binding”.

For B2, the binding result is listed as “no binding”.

The target of another assay is T6, NOS1 PDZ-GST fusion protein (Homo sapiens (Human), UniProt P29475 11-100).
T6 construct: Order of GST and PDZ part and limits not seen in the excerpts
T6 sequence (P29475 11-100 limits assumed): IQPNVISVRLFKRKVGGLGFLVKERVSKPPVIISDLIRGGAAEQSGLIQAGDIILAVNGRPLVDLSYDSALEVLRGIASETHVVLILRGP
The assay is described as follows: A/G assays.
Take B1: the binding result is listed as “no binding”.

As to B2, the binding result is recorded as “no binding”.

Another assay addresses T7, TAX-IP33 PDZ-GST fusion protein (Homo sapiens (Human), UniProt O14910 103-193).
T7 construct: Order of GST and PDZ part and limits not seen in the excerpts
T7 sequence: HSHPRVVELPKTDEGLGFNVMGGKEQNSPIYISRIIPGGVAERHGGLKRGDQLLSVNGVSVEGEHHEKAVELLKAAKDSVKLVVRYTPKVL
The assay is described as follows: A/G assays.
As to B1, the binding result is listed as “no binding”.

For B2, the binding result was “no binding”.

The next assay has as its target T8, GST-TAX-IP43 PDZ domain fusion protein (human, UniProt Q13884 109-180).
T8 construct: also called TAX43; not shown: glutathione S-transferase encoded by vector pGEX-3X (Pharmacia)
T8 sequence: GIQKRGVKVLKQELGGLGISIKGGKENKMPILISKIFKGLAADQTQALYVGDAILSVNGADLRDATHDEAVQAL
The assay is described as follows: A/G assays.
As to B1, the binding result was “no binding”.

With B2, the binding result is on record as “no binding”.

A further assay deals with T9, GST-DVL1 PDZ domain fusion protein (human, UniProt O14640 247-339).
T9 construct: also called human dishevelled segment polarity protein homolog; not shown: glutathione S-transferase encoded by vector pGEX-3X (Pharmacia)
T9 sequence: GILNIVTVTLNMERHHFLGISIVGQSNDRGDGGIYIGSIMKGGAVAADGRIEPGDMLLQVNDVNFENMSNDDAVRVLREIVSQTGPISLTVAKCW
The assay is described as follows: A/G assays.
Turning to B1, the binding result was “no binding”.

Regarding B2, the binding result is given as “no binding”.

The next assay has as its target T10, GST-PDZK1 fusion protein (PDZ domains 2-4) (Homo sapiens, UniProt Q5T2W1 134-457).
T10 construct: not shown: glutathione S-transferase encoded by vector pGEX-3X (Pharmacia)
T10 sequence: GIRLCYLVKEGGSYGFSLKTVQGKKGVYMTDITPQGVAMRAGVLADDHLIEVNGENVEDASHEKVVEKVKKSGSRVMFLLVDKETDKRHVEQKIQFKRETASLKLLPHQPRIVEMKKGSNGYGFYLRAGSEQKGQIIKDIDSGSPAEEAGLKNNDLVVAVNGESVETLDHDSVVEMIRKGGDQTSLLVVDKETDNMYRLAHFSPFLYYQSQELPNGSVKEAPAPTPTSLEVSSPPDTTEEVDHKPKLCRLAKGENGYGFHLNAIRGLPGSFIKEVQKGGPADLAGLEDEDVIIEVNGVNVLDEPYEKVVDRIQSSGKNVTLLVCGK
The assay is described as follows: A/G assays.
B1: the binding result is on record as “no binding”.

Turning to B2, the binding result was “no binding”.

The target of the next assay is T11, GST-MPP1 PDZ domain fusion protein (Homo sapiens (Human), UniProt Q00013 67-152).
T11 construct: also called p55; 55 Kd erythrocyte membrane protein; not shown: glutathione S-transferase encoded by vector pGEX-3X (Pharmacia)
T11 sequence: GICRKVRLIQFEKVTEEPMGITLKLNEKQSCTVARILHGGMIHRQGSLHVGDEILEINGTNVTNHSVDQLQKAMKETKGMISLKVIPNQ
The assay can be described thus: A/G assays.
Turning to B1, the binding result is on record as “no binding”.

Regarding B2, the binding result is on record as “no binding”.

Another assay concerns the target T12, PICK1 PDZ-GST fusion protein (Bos taurus (Bovine), UniProt Q2T9M1 17-105).
T12 construct: Order of GST and PDZ part and limits not seen in the excerpts
The assay can be described thus: A/G assays.
As to B1, the binding result is given as “no binding”.

As for B2, the binding result is “no binding”.

Another assay deals with T13, GST-prIL16 fusion protein (PDZ domains 1-2) (Homo sapiens (Human), UniProt Q14005 1111-1324).
T13 construct: also called putative interleukin 16 precursor; not shown: glutathione S-transferase encoded by vector pGEX-3X (Pharmacia)
T13 sequence: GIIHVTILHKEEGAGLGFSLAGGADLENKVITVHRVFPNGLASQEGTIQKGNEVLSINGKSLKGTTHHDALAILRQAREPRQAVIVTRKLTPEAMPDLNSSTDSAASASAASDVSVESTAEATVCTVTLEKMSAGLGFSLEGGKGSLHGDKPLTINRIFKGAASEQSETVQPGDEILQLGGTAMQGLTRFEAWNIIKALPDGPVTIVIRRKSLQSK
The assay is described as follows: A/G assays.
Regarding B1, the binding result is given as “no binding”.

As to B2, the binding result is given as “no binding”.

Another assay deals with T14, K316 PDZ-GST fusion protein (Homo sapiens (Human), UniProt Q14CM0 72-159).
T14 construct: Order of GST and PDZ part and limits not seen in the excerpts
T14 sequence (Q14CM0 72-159 limits assumed): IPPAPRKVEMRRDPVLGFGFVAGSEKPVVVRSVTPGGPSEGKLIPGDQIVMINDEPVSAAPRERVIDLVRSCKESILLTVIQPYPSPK
The assay can be described thus: A/G assays.
As for B1, the binding result is “no binding”.

For the molecule B2, the binding result is reported as “no binding”.

The next assay addresses T15, GST-TIAM1 PDZ domain fusion protein (Homo sapiens (Human), UniProt Q13009 845-931).
T15 construct: also called TLAM1; T-lymphoma invasion and metastasis inducing protein 1; not shown: glutathione S-transferase encoded by vector pGEX-3X (Pharmacia)
The assay is described as follows: A/G assays.
For the molecule B1, the binding result is listed as “no binding”.

In the case of B2, the binding result is “no binding”.
